Article PMC9325545, “Structure and Mutation of the Native Amine Dehydrogenase MATOUAmDH2” (Chembiochem, 2022)

Molecular target: MATOUAmDH2 (native amine dehydrogenase from the Marine Atlas of Tara Oceans Unigenes, MATOUv1)
Assay: crystal structure; complex with NADP+; space group P2(1)2(1)2(1); four molecules in the asymmetric unit, two dimers (A/D and B/C)

- stoichiometry N: 2
Substance: MATOUAmDH2 (native amine dehydrogenase from the Marine Atlas of Tara Oceans Unigenes, MATOUv1) (enzyme)
